In patent US20190367631A1 (Regeneron, published 2019):
Read-outs that look alike come from different tables or passages of the source.

T1: human MSR1 extracellular domain expressed with a N-terminal nonahistidine tag (human, UniProt P21757 77-451)
T1 construct: extracellular domain; also called His9-hMSR1; His-hMSR1
T1 sequence: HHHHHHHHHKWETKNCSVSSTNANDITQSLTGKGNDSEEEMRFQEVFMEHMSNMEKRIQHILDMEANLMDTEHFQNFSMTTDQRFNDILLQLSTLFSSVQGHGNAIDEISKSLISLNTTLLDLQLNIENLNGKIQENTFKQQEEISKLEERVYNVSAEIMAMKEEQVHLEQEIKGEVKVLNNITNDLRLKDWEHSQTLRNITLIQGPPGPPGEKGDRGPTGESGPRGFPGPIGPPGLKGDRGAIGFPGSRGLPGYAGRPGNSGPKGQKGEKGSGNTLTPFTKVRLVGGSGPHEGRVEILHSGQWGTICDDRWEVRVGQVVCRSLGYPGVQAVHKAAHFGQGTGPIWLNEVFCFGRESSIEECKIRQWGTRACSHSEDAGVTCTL

T2: full length human MSR1 with a C-terminal Myc tag, on HEK293.Myc.hMSR1 cells (human, UniProt P21757 1-451)
T2 construct: whole, on cells; stably expressed on engineered HEK293 cells; not shown: C-terminal Myc tag
T2 sequence (looked up): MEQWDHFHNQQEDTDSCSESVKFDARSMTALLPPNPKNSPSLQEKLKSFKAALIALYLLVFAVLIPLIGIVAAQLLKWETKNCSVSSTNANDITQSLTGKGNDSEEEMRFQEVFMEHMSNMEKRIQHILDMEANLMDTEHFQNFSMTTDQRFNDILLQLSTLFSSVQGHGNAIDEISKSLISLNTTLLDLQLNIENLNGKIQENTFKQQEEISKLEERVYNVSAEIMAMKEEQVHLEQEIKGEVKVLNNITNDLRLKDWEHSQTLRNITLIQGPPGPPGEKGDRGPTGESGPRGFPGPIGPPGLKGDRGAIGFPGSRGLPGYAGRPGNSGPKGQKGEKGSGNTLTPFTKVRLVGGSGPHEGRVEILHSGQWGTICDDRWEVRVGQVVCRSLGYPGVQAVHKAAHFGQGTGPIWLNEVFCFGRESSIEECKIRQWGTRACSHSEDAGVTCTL

T3: full length monkey MSR1 on HEK293.mfMSR1 cells (Macaca fascicularis, UniProt A0A2K5UWE2 1-451)
T3 construct: whole, on cells
T3 sequence: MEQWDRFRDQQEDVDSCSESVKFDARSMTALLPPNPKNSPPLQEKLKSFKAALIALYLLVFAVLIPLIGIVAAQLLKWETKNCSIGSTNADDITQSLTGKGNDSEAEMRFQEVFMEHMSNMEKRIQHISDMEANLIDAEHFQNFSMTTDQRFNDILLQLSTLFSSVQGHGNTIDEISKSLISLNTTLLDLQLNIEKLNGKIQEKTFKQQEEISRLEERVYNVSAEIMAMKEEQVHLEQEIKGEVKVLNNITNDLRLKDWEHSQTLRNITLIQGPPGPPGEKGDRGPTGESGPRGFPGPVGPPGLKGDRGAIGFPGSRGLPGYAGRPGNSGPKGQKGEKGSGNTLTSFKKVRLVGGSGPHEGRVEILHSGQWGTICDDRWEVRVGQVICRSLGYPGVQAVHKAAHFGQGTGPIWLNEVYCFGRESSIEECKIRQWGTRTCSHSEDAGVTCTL

T4: human MSR1 extracellular domain expressed with a N-terminal nonahistidine tag (His9-hMSR1); R&D Systems, Cat … (human, UniProt P21757 77-451)
T4 construct: extracellular domain; Bought reagent; also called His-hMSR1; 9xHis-hMSR1
T4 sequence: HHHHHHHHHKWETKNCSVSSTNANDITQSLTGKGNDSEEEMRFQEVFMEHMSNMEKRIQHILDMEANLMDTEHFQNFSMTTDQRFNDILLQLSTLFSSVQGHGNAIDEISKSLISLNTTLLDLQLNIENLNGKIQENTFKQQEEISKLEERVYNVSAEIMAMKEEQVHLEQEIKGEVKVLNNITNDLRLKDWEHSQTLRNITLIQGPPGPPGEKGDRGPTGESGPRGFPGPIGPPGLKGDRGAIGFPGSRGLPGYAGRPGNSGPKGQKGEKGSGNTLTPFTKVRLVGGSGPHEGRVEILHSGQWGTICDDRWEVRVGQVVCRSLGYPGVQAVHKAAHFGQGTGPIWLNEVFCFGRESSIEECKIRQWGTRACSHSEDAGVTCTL


Assays:
[1] = target: T1, human MSR1 extracellular domain …; assay: competition ELISA, plate-coated His9-hMSR1; 300 nM antibody, competitor ligand biot-AGE-BSA
Description: (§1) Buffer alone was also added to wells on each coat. […] This assay was conducted in four different assay runs.
(§2) Data analysis was performed using a sigmoidal dose-response model within Prism™ software (GraphPad).

[2] = target: T1, human MSR1 extracellular domain …; assay: competition ELISA, plate-coated His9-hMSR1; 100 nM antibody, competitor ligand Ac-LDL
Description: as §1, §2

[3] = target: T1, human MSR1 extracellular domain …; assay: competition ELISA, plate-coated His9-hMSR1; 500 nM antibody, competitor ligand 5 nM Ox-LDL
Description: as §1, §2

[4] = target: T2, full length human MSR1 with a …; assay: ECL cell binding, HEK293.Myc.hMSR1 cells, 11 nM
Description: (§3) All cells were washed once with 1×PBS with Ca²⁺/Mg²⁺ and counted with a Cellometer™ Auto T4 cell counter (Nexcelom Bioscience). Approximately 1.0×10⁴ cells were seeded separately onto 96-well carbon electrode plates [MULTI-ARRAY high bind plate, Meso Scale Diagnostics] and incubated for 1 hour at 37° C. Non-specific binding sites were then blocked by 2% BSA (w/v) in PBS with Ca²⁺/Mg²⁺ for 1 hour at room temperature. THP-1 cells were pre-incubated for 0.5 hours at room temperature in sample dilution buffer with: 1) 1 mg/mL Fc receptor block reagents to block Fc gamma receptors on THP-1 cell surface [whole molecule human IgG (Jackson Immunoresearch, Cat #009-000-003) for wells being tested with anti-MSR1-mFc antibodies or 2) whole molecule mlgG (Jackson Immunoresearch, Cat #015-000-003) for wells being tested with anti-MSR1-hFc antibodies. Antibody binding on HEK293.Myc.hMSR1, HEK293.mfMSR1 and HEK293 cells was tested without Fc receptor block reagents. […] Plates were then washed to remove unbound antibodies an AquaMax2000 plate washer with a cell washing head (MDS Analytical Technologies). […] Plates were washed and developed with Read Buffer (Meso Scale Diagnostics, Cat # R92TD-2) according to manufacturer's recommended procedure and luminescent signals were recorded with a SECTOR Imager 600 (Meso Scale Diagnostics). Luminescence intensity, measured in relative light units (RLU), was recorded to indicate the binding intensity of each antibody at the range of concentrations.

[5] = target: T3, full length monkey MSR1 on …; assay: ECL cell binding, HEK293.mfMSR1 cells, 11 nM
Description: as §3

[6] = target: T3, full length monkey MSR1 on …; assay: ECL cell binding, HEK293.mfMSR1 cells; section head of Table 10
[7] = target: T1, human MSR1 extracellular domain …; assay: competition ELISA, plate-coated His9-hMSR1; 500 nM antibody, competitor ligand 10 nM Ox-LDL
Description: as §1, §2

[8] = target: T4, human MSR1 extracellular domain …; assay: SPR Biacore T200, 25 C, antibody captured by anti-human Fc, His9-hMSR1 injected
Description: (§4) All binding studies were performed in 10 mM HEPES, 300 mM NaCl, 3 mM EDTA, and 0.05% v/v Surfactant Tween-20, pH 7.4 (HBS-ET) running buffer at 25° C.
(§5) The association rate (kₐ) and dissociation rate (kd) were determined by fitting the real-time binding sensorgrams to a 1:1 binding model with mass transport limitation using Scrubber 2.0c curve-fitting software. Binding dissociation equilibrium constant (KD) and dissociative half-life (t½) were calculated from the kinetic rates as:

[9] = target: T4, human MSR1 extracellular domain …; assay: SPR Biacore T200, 25 C, antibody captured by anti-human Fc, His9-hMSR1 injected; no dissociation seen, kd fixed at 1.00E-05
Description: as §4, §5

[10] = target: T4, human MSR1 extracellular domain …; assay: SPR Biacore T200, 25 C, antibody captured by anti-human Fc, His9-hMSR1 injected; remark: listed apart in the source
Description: as §4, §5

[11] = target: T4, human MSR1 extracellular domain …; assay: SPR Biacore T200, 25 C, antibody captured by anti-human Fc, His9-hMSR1 injected; no dissociation seen, kd fixed at 1.00E-05; remark: listed apart in the source
Description: as §4, §5

Binder	% Blocking [1] [%]	% Blocking [2] [%]	% Blocking [3] [%]	% Blocking [7] [%]	kon [8] [M⁻¹ s⁻¹]	Kd [9] [nM]	koff [9] [s⁻¹]	t½ [9] [h]	other results
H2aM21228N (antibody, mouse IgG2a, V domains shown, Human variable domains with mouse IgG2a Fc) VH: VQLVESGGGLVQPGGSLRLSCAASGFTFSDHYMDWVRQAPGKGLEWVGRTRNKANSHTTEYAASVSGRFTISRDDSKNSLYLQMNSLKTEDTAVYYCTRAGIIGTLFDYWGQGTLVTVSS VL: not shown	-1	-32	41	–	–	–	–	–	–
H1xH29282P2 (antibody, V domains shown) VH: EVQLVESGGGLVQPGGSLRLSCAASGFTFSTYAMSWVRQAPGKGLEWVSTISGRSDITYFADSVKGRFTVSRDNSKTTLYLQMNSLRAEDTAVYYCATDDDLPLDYWGQGTLVTVSS VL: not shown	–	–	–	–	–	–	–	–	ratio of binding signal (RLU) to isotype control [4]: 9 fold; ratio of binding signal (RLU) to isotype control [5]: 1 fold; binding result [6]: no binding (tested: 11 nM)
H2aM21229N (antibody, mouse IgG2a, V domains shown, Human variable domains with mouse IgG2a Fc) VH: EVQLVESGGGLVKPGGSLRLSCAASGFTFSRYSMNWVRQAPGKGLEWVSSISSSSSYIYYGDTVKGRFTISRDNAKKSLYLQMNSLRAEDTAVYYCVRDRGQLVLYFDYWGQGTLVTVSS VL: DIQMTQSPASLSTSIRDRVTITCRASLSISSFLNWFQQRPGKAPKLLIYVASNLQSGVPSRFSDSGSGTDFTLTISSLQPEDFATYYCQQNYSTPPITFGQGTRLEIK	3	-11	38	–	–	–	–	–	–
H1H21234N-N297Q (antibody, V domains shown, Human IgG1 Fc with N297Q (EU numbering)) VH: QVQLQESGPGLVKPSETLSLTCTVTGGSISRNYWSWIRQPPGKGLEWIGYIYYSGSIDYNPSLKSRVTISVDTSKNQFSLKLSSMTAADTAVYYCARDRWNWKYGMDVWGQGTTVIVSS VL: EIVLTQSPGTLSLSPGERATLSCRASQTVRNNYLAWYHQKPGQAPRLLIYGASSRATGIPDRFSGSGSGTDFTLTISRLEPEDFTVYYCHQYGNSPWTFGQGTKMEIKR	-27	75	–	49	–	–	–	–	–
H1H21234N-N297Q-LP13 (antibody, human IgG1, V domains shown, steroid linker-payload LP13 clicked to azido-PEG3-amine on Q295 and Q297 (EU) of the heavy chain constant region, antibody-drug conjugate; human IgG1 Fc with N297Q (EU); also called H1H21234N-LP13) VH: QVQLQESGPGLVKPSETLSLTCTVTGGSISRNYWSWIRQPPGKGLEWIGYIYYSGSIDYNPSLKSRVTISVDTSKNQFSLKLSSMTAADTAVYYCARDRWNWKYGMDVWGQGTTVIVSS VL: EIVLTQSPGTLSLSPGERATLSCRASQTVRNNYLAWYHQKPGQAPRLLIYGASSRATGIPDRFSGSGSGTDFTLTISRLEPEDFTVYYCHQYGNSPWTFGQGTKMEIKR	–	–	–	–	400000	≤ 0.025	≤ 1e-05	≥ 19.3	–
H1H21234N (antibody, V domains shown, Original human IgG1 Fc) VH: QVQLQESGPGLVKPSETLSLTCTVTGGSISRNYWSWIRQPPGKGLEWIGYIYYSGSIDYNPSLKSRVTISVDTSKNQFSLKLSSMTAADTAVYYCARDRWNWKYGMDVWGQGTTVIVSS VL: EIVLTQSPGTLSLSPGERATLSCRASQTVRNNYLAWYHQKPGQAPRLLIYGASSRATGIPDRFSGSGSGTDFTLTISRLEPEDFTVYYCHQYGNSPWTFGQGTKMEIKR	21	70	–	98	–	–	–	–	–
H1H21234N-N297Q (antibody, human IgG1, V domains shown, human IgG1 Fc with N297Q (EU); also called H1H21234-N297Q) VH: QVQLQESGPGLVKPSETLSLTCTVTGGSISRNYWSWIRQPPGKGLEWIGYIYYSGSIDYNPSLKSRVTISVDTSKNQFSLKLSSMTAADTAVYYCARDRWNWKYGMDVWGQGTTVIVSS VL: EIVLTQSPGTLSLSPGERATLSCRASQTVRNNYLAWYHQKPGQAPRLLIYGASSRATGIPDRFSGSGSGTDFTLTISRLEPEDFTVYYCHQYGNSPWTFGQGTKMEIKR	–	–	–	–	300000	≤ 0.0333	≤ 1e-05	≥ 19.3	kon [10]: 220000 M⁻¹ s⁻¹; Kd [11]: ≤ 0.0454 nM; koff [11]: ≤ 1e-05 s⁻¹; t½ [11]: ≥ 19.3 h
H1H21234N-N297Q-LP3 (antibody, human IgG1, V domains shown, steroid linker-payload LP3 clicked to azido-PEG3-amine on Q295 and Q297 (EU) of the heavy chain constant region, antibody-drug conjugate; human IgG1 Fc with N297Q (EU); also called H1H21234N-LP3) VH: QVQLQESGPGLVKPSETLSLTCTVTGGSISRNYWSWIRQPPGKGLEWIGYIYYSGSIDYNPSLKSRVTISVDTSKNQFSLKLSSMTAADTAVYYCARDRWNWKYGMDVWGQGTTVIVSS VL: EIVLTQSPGTLSLSPGERATLSCRASQTVRNNYLAWYHQKPGQAPRLLIYGASSRATGIPDRFSGSGSGTDFTLTISRLEPEDFTVYYCHQYGNSPWTFGQGTKMEIKR	–	–	–	–	417000	≤ 0.024	≤ 1e-05	≥ 19.3	–
H2aM25695N (antibody, mouse IgG2a, V domains shown, Human variable domains with mouse IgG2a Fc) VH: QVQLQESGPGLVKPSETLSLTCTVTGGSISRNYWSWIRQPPGKGLEWIGYIYYSGSINYNPSLKSRVTISVDMSKNQFSLKLNSVTAADTAVYYCARDRWNWKYGMDVWGQGTTVIVSS VL: EIVLTQSPGTLSLSPGERATLSCRASQTVRNSYLAWYHQKPGQAPRLLIYGASSRATGIPDRFSGSGSGTDFTLTISRLEPEDFAVYYCQQYGSSYWTFGQGTKMEIKR	16	65	–	96	–	–	–	–	–
H2aM21235N (antibody, mouse IgG2a, V domains shown, Human variable domains with mouse IgG2a Fc) VH: EVQLVESGGGLVQPGGSLRLSCAASGFTFSDHYMDWVRQAPGKGLEWVGRTRNKANSYTTEYAASVSGRFTISRDDSKNSLYLQMNSLKTEDTAVYYCTRAGIIGTLFDYWGQGTLVTVSS VL: DIQMTQSPSSLSASVGDRVTITCRASQIIGRYLNWFQQKPGKVPKLLIYAASSLQRGVPSRFSGSGSGTDFTLTISSLQPEDFATYYCQQSYNTPPITFGQGTRLEIKR	-24	24	-4	–	–	–	–	–	–
